Target: T1, RORα1 (NR1F1) (human, UniProt P35398 1-523)
T1 sequence: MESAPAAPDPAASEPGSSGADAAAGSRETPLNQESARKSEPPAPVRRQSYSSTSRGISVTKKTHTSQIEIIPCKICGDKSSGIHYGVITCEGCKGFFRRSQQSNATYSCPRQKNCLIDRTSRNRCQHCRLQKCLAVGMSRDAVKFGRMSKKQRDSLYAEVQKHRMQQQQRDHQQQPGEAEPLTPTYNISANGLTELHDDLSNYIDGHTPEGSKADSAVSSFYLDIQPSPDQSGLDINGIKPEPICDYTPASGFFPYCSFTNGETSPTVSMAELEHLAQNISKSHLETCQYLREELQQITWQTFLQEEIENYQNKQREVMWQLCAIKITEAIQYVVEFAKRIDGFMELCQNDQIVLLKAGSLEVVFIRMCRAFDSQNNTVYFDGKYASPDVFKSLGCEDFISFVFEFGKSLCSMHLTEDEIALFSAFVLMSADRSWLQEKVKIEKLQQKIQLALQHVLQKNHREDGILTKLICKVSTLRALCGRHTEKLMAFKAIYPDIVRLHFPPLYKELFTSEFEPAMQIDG
Assay: EMSA; 15 mM Tris-HCl pH 7.5, 50 mM KCl, 15 mM NaCl, 1 mM MgCl2, 0.03 mM EDTA, 1 mM DTT, 7% glycerol, 50 ng poly(dI-dC), 50 ng unspecific ss oligonucleotides, 0.15 ng
Conditions: protein: ivt; label: 32P (Klenow fill-in, [α-32P]-dATP) when used as probe

B1: SPARC-RORE (dsDNA)
DNA 1: CGGTAGGCTGTTCTGGGTCATCCCTCCAGG
DNA 2: ACGTCCTGGAGGGATGACCCAGAACAGCCT
- binding result: binds
